These substances were tested against HLA-B15 (human) (assay: experimental peptide-HLA binding affinity; method not described).

Binding affinity [µM] | Substance
38.5 | HPV16 E7/15-24 peptide …
4.68 | HPV16 E7/15-23 peptide …
7.3 | HPV16 E7/15-25 peptide …

— patent publication US20190241619A1
